Results reported in patent publication US9512195B2, “Insulin derivatives containing additional disulfide bonds” (Novo Nordisk A/S, priority 2010, dated 2016).

Target: T1, human insulin receptor (human IR-A) (Homo sapiens, UniProt P06213)
T1 construct: solubilized human IR (holoreceptor); expressed in transfected cells; host or cells: baby hamster kidney (BHK) cells, stably transfected (pZem vector); detergent-solubilised and semipurified on wheat germ agglutinin
Experiment: Insulin receptor binding assay (SPA, on solubilised insulin receptor)
Details: comparison table of side chain and parent insulin mutations (rel. to HI)
Protocol: Insulin Receptor Binding Assay (on Solubilised Insulin Receptor)
Competition binding experiments were performed in 96-well plates (polystyrene Optiplate-96, PerkinElmer) on an Eppendorf epMotion 5075 robot using solubilized human IR (holoreceptor) semipurified by wheat germ agglutinin purification from baby hamster kidney (BHK) cells, which were stably transfected with the pZem vector containing the human IR-A or IR-B insert.

T1 sequence (P06213 28-746 isoform P06213-2 limits assumed): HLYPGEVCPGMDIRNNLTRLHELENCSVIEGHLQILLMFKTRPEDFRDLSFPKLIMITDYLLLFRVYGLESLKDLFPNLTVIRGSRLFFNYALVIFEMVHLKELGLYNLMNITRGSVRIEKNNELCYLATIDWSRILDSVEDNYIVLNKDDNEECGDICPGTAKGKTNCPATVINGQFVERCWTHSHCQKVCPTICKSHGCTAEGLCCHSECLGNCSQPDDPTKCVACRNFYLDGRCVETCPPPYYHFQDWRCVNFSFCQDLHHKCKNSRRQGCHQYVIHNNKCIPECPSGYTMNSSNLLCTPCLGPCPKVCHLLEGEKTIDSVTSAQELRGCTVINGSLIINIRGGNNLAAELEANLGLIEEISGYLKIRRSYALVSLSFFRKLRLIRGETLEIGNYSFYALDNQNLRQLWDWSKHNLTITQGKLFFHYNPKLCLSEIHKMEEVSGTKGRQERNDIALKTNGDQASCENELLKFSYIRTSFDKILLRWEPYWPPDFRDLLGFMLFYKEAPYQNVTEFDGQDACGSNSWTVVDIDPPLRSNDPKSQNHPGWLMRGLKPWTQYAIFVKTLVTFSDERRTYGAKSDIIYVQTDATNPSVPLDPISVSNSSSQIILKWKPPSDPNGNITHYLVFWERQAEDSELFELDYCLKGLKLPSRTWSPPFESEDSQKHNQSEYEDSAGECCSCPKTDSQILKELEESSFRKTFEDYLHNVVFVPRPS
T1 sequence (P06213 763-1382 partner limits assumed): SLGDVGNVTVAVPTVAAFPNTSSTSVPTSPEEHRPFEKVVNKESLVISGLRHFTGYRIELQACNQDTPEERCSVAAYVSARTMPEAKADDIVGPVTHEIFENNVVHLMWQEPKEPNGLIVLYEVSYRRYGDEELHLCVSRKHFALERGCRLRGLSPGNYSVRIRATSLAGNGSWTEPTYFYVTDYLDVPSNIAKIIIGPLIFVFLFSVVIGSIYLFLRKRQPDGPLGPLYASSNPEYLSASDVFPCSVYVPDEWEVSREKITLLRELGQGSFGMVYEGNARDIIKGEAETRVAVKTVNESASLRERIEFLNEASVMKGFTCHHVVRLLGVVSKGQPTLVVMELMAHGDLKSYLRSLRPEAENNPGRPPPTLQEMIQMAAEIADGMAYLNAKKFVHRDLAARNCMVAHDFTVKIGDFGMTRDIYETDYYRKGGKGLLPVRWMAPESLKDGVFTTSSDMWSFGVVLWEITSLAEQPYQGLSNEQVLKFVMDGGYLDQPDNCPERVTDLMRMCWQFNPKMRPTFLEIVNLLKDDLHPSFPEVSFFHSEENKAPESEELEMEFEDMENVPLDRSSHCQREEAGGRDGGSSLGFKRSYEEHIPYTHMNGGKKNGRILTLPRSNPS

Relative IR-A affinity SPA assay (@ 0% HSA) (0% HSA): 10.4
Relative IR-A affinity SPA assay (@ […] ([…] (HSA)): 0.70
Substance: C18-gGlu- desB30: desB30 human insulin with side chain C18-gGlu- (cell cut off), no additional disulfide bond
